Assay results from US20060292151A1, “L-SIGN polymorphisms and methods involving use of same” (priority 2004, published 2006).

Assays:
[1] = biological target: HeLa-SIGN transfectants (L-SIGN isoforms tested); assay: flow cytometry, E2 at 5 µg/ml; upper end not tied to an isoform
[2] = biological target: L-SIGN-9 (human); assay: flow cytometry on HeLa-SIGN transfectants
[3] = biological target: L-SIGN-9 (human); assay: flow cytometry, E2 at 5 µg/ml; lower end tied to L-SIGN-9 by the words L-SIGN-9 cells showing the lowest levels of binding
[4] = biological target: L-SIGN-7 (human) (UniProt Q9H2X3); assay: HCVpp supernatant on HeLa-SIGN transfectants, cell-bound p24 by ELISA
Sequence of L-SIGN-7 (human) (Q9H2X3 whole entry): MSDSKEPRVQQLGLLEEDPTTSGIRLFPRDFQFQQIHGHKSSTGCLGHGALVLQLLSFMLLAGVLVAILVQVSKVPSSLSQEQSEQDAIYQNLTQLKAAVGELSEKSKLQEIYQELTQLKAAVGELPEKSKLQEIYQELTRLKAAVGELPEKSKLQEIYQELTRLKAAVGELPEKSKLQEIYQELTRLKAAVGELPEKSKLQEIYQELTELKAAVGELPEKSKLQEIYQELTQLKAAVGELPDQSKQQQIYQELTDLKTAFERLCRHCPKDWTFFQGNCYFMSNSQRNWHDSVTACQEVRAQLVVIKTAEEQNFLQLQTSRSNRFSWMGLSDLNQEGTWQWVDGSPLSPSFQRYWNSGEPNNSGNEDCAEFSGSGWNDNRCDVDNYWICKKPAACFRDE

Substance | fold above background binding to parental HeLa [1] [fold] | specific binding, percent of cells [1] | fold lower binding than the other isoforms [2] [fold] | fold above background binding to parental HeLa [3] [fold] | specific binding, percent of cells [3] | fold higher binding than to the other isoforms [4] [fold]
soluble E2 glycoprotein | 25 | 93 % of cells | 2 to 3 | 9 | 35 % of cells | 
HCV pseudovirus particles (HCVpp) (from UniProt P27958 192-383; P27958 384-746) (other; other documents disagree on this pair) |  |  |  |  |  | 2
